No end group written: not given here.
What was measured:
[1] = target: T1, anti-CD28 Fab (SEQ ID NOs: 202, 203); assay: binding ELISA, peptide captured, anti-CD28 Fab titrated
T1 construct: biotinylated when captured in the phage ELISAs
T1 sequence (VH, as listed by the source, chain 1 of 2): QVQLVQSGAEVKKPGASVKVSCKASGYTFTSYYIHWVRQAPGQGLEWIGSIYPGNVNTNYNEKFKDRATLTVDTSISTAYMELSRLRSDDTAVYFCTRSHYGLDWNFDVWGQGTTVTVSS
T1 sequence (VL, as listed by the source, chain 2 of 2): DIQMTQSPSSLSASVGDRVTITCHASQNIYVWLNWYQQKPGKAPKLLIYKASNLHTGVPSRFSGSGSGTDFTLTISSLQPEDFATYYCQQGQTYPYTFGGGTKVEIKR

[2] = target: T2, anti-CD28 Fab (SEQ ID NOs: 202, 203); assay: phage binding ELISA on captured biotinylated Fab;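 note: clonal phage supernatants added to wells preincubated with CD28 antigen or blocking buffer only, bound phage detected by ELISA with horseradish-conjugated anti-M13 antibody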
T2 construct: biotinylated and captured on neutravidin coated plates in the phage ELISA
T2 sequence (VH, as listed by the source, chain 1 of 2): as the sequence (VH, as listed by the source, chain 1 of 2) above
T2 sequence (VL, as listed by the source, chain 2 of 2): as the sequence (VL, as listed by the source, chain 2 of 2) above
Description: (§1) After panning, phage infected bacteria were plated out and colonies picked into 96 well blocks. Clonal phage was then amplified and separated from bacterial cells via centrifugation.
(§2) Clonal phage were harvested as crude supernatants and screened via standard ELISAs. […] Prior to the addition of clonal phage, wells were incubated with blocking buffer and CD28 antigen or blocking buffer alone. Without washing or aspirating, clonal phage supernatants were then added to the wells and incubated for a short time. Wells were then washed followed by detection of bound phage using a horse radish conjugated anti-M13 antibody. Clonal phage of interest were then sent for sequence analysis.

[3] = target: T2, anti-CD28 Fab (SEQ ID NOs: 202, 203); assay: phage binding ELISA on captured Fab, competitor CD28 antigen
Description: as §1, §2

[4] = target: anti-CD28 Fab (SEQ ID NOs: 202, 203); assay: phage binding ELISA; captured anti-CD28 Fab pre-incubated with CD28 antigen as competitor, anti-M13-HRP detection
Target sequence in this assay (VH, as listed by the source, chain 1 of 2): as the sequence (VH, as listed by the source, chain 1 of 2) above
Target sequence in this assay (VL, as listed by the source, chain 2 of 2): as the sequence (VL, as listed by the source, chain 2 of 2) above
Description: as §1, §2

[5] = target: anti-CD28 Fab (SEQ ID NOs: 202, 203); assay: phage binding ELISA; biotinylated anti-CD28 Fab captured on neutravidin plate, clonal phage supernatant, anti-M13-HRP detection;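 note: before crude clonal phage supernatants were added, wells were preincubated with CD28 antigen in blocking buffer or with blocking buffer only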
Target sequence in this assay (VH, as listed by the source, chain 1 of 2): as the sequence (VH, as listed by the source, chain 1 of 2) above
Target sequence in this assay (VL, as listed by the source, chain 2 of 2): as the sequence (VL, as listed by the source, chain 2 of 2) above
Description: as §1, §2

B1: Peptide-94 (peptide)
peptide: TCAAGATWSWPACF
modifications: cysteine pairing not given here; also: biotinylated, site not given here
EC50 [1]: 4.5 nM

B2: Peptide-95 (peptide)
peptide: TCAAGAAWGWPLCF
modifications: cysteine pairing not given here; also: biotinylated, site not given here
EC50 [1]: 5.6 nM

B3: Peptide-96 (peptide)
peptide: LCAAGATYPWPLCL
modifications: cysteine pairing not given here; also: biotinylated, site not given here
EC50 [1]: 5.6 nM

B4: Peptide-99 (peptide)
peptide: LCAAGATYPWPTCL
modifications: cysteine pairing not given here; also: biotinylated, site not given here
EC50 [1]: 25.8 nM

B5: Peptide-98 (peptide)
peptide: TCSAGAAYSWPACF
modifications: cysteine pairing not given here; also: biotinylated, site not given here
EC50 [1]: 24.3 nM

B6: Peptide-100 (peptide)
peptide: SCSAGAHYPWPQCF
modifications: cysteine pairing not given here; also: biotinylated, site not given here
EC50 [1]: 19 nM

B7: Peptide-101 (peptide)
peptide: TCSAGATYEWPRCL
modifications: cysteine pairing not given here; also: biotinylated, site not given here
EC50 [1]: 12.8 nM

B8: Peptide-102 (peptide)
peptide: TCSAGAHYPWPICL
modifications: cysteine pairing not given here; also: biotinylated, site not given here
EC50 [1]: 10.6 nM

B9: Peptide-103 (peptide)
peptide: SCSAGAAYYWPWCL
modifications: cysteine pairing not given here; also: biotinylated, site not given here
EC50 [1]: 112 nM

B10: Peptide-104 (peptide)
peptide: TCSAGATWAWPLCF
modifications: cysteine pairing not given here; also: biotinylated, site not given here
EC50 [1]: 15.6 nM

B11: Peptide-105 (peptide)
peptide: TCAAGATYLWPTCL
modifications: cysteine pairing not given here; also: biotinylated, site not given here
EC50 [1]: 20.5 nM

B12: Peptide-106 (peptide)
peptide: TCAAGAHYPWPACL
modifications: cysteine pairing not given here; also: biotinylated, site not given here
EC50 [1]: 4.2 nM

B13: Phage-939 (peptide)
peptide: TCSAGATYTWSKCF
Anti-CD28 Fab (SEQ ID NOs: 202, 203) signal [2]: 2.15 | Anti-CD28 Fab signal in the presence of CD28 [3]: 0.06

B14: Phage-941 (peptide)
peptide: TCSAGATYTWPWCF
Anti-CD28 Fab (SEQ ID NOs: 202, 203) signal [2]: 2.14 | Anti-CD28 Fab signal in the presence of CD28 [3]: 0.07

B15: Phage-927 (peptide)
peptide: MCAAGFHYPWPACL
Anti-CD28 Fab (SEQ ID NOs: 202, 203) signal [2]: 2.23 | Anti-CD28 Fab signal in the presence of CD28 [3]: 0.1

B16: Phage-928 (peptide)
peptide: TCAAGANWEWPWCF
Anti-CD28 Fab (SEQ ID NOs: 202, 203) signal [2]: 2.22 | Anti-CD28 Fab signal in the presence of CD28 [3]: 0.08

B17: Phage-929 (peptide)
peptide: TCAAGATYAWPYCV
Anti-CD28 Fab (SEQ ID NOs: 202, 203) signal [2]: 2.21 | Anti-CD28 Fab signal in the presence of CD28 [3]: 0.09

B18: Phage-930 (peptide)
peptide: TCAAGAAYPWPLCF
Anti-CD28 Fab (SEQ ID NOs: 202, 203) signal [2]: 2.18 | Anti-CD28 Fab signal in the presence of CD28 [3]: 0.11

B19: Phage-931 (peptide)
peptide: TCSAGASNKLSLCL
Anti-CD28 Fab (SEQ ID NOs: 202, 203) signal [2]: 2.18 | Anti-CD28 Fab signal in the presence of CD28 [3]: 0.06

B20: Phage-932 (peptide)
peptide: MCSAGANWPWPLCF
Anti-CD28 Fab (SEQ ID NOs: 202, 203) signal [2]: 2.18 | Anti-CD28 Fab signal in the presence of CD28 [3]: 0.07

B21: Phage-933 (peptide)
peptide: RCSAGFHYPLSLCL
Anti-CD28 Fab (SEQ ID NOs: 202, 203) signal [2]: 2.18 | Anti-CD28 Fab signal in the presence of CD28 [3]: 0.06

B22: Phage-934 (peptide)
peptide: NCSAGATYPWPLCL
Anti-CD28 Fab (SEQ ID NOs: 202, 203) signal [2]: 2.17 | Anti-CD28 Fab signal in the presence of CD28 [3]: 0.07

B23: Phage-935 (peptide)
peptide: SCAAGAMYSWPTCL
Anti-CD28 Fab (SEQ ID NOs: 202, 203) signal [2]: 2.16 | Anti-CD28 Fab signal in the presence of CD28 [3]: 0.08

B24: Phage-936 (peptide)
peptide: NCSAGAQWPWPICL
Anti-CD28 Fab (SEQ ID NOs: 202, 203) signal [2]: 2.15 | Anti-CD28 Fab signal in the presence of CD28 [3]: 0.08

B25: Phage-937 (peptide)
peptide: LCAAGAHYPWPQCL
Anti-CD28 Fab (SEQ ID NOs: 202, 203) signal [2]: 2.15 | Anti-CD28 Fab signal in the presence of CD28 [3]: 0.07

B26: Phage-938 (peptide)
peptide: TCAAGAHWPWPTCF
Anti-CD28 Fab (SEQ ID NOs: 202, 203) signal [2]: 2.15 | Anti-CD28 Fab signal in the presence of CD28 [3]: 0.07

B27: Phage-940 (peptide)
peptide: LCNAGATYSWPTCL
Anti-CD28 Fab (SEQ ID NOs: 202, 203) signal [2]: 2.14 | Anti-CD28 Fab signal in the presence of CD28 [3]: 0.06

B28: Phage-1243 (peptide)
peptide: TCSAGATYKWPMCF
Anti-CD28 Fab signal in the presence of CD28 [4]: 0.07 | Anti-CD28 Fab (SEQ ID NOs: 202, 203) signal [5]: 0.77

B29: Phage-1244 (peptide)
peptide: TCSAGATYGWPACF
Anti-CD28 Fab signal in the presence of CD28 [4]: 0.07 | Anti-CD28 Fab (SEQ ID NOs: 202, 203) signal [5]: 0.76

B30: Phage-1245 (peptide)
peptide: ICAAGAGWPWPWCL
Anti-CD28 Fab signal in the presence of CD28 [4]: 0.1 | Anti-CD28 Fab (SEQ ID NOs: 202, 203) signal [5]: 0.75

B31: Phage-1246 (peptide)
peptide: ECSAGAMWGWPACF
Anti-CD28 Fab signal in the presence of CD28 [4]: 0.09 | Anti-CD28 Fab (SEQ ID NOs: 202, 203) signal [5]: 0.73

B32: Phage-1247 (peptide)
peptide: TCAAGATYDWPSCL
Anti-CD28 Fab signal in the presence of CD28 [4]: 0.08 | Anti-CD28 Fab (SEQ ID NOs: 202, 203) signal [5]: 0.71

B33: Phage-1248 (peptide)
peptide: TCAAGAVWQWPTCF
Anti-CD28 Fab signal in the presence of CD28 [4]: 0.06 | Anti-CD28 Fab (SEQ ID NOs: 202, 203) signal [5]: 0.71

B34: Phage-1249 (peptide)
peptide: PCSAGATYAWPYCL
Anti-CD28 Fab signal in the presence of CD28 [4]: 0.09 | Anti-CD28 Fab (SEQ ID NOs: 202, 203) signal [5]: 0.71

B35: Phage-1250 (peptide)
peptide: TCAAGAQLEWPWCF
Anti-CD28 Fab signal in the presence of CD28 [4]: 0.07 | Anti-CD28 Fab (SEQ ID NOs: 202, 203) signal [5]: 0.7

B36: Phage-1251 (peptide)
peptide: GCAAGAEYNWPTCL
Anti-CD28 Fab signal in the presence of CD28 [4]: 0.64 | Anti-CD28 Fab (SEQ ID NOs: 202, 203) signal [5]: 0.69

B37: Phage-1252 (peptide)
peptide: TCAAGAAYTWPHCF
Anti-CD28 Fab signal in the presence of CD28 [4]: 0.11 | Anti-CD28 Fab (SEQ ID NOs: 202, 203) signal [5]: 0.69

B38: Phage-1253 (peptide)
peptide: TCSAGAQWEWPACL
Anti-CD28 Fab signal in the presence of CD28 [4]: 0.08 | Anti-CD28 Fab (SEQ ID NOs: 202, 203) signal [5]: 0.67

B39: Phage-1254 (peptide)
peptide: WCSAVFSYQWPVCL
Anti-CD28 Fab signal in the presence of CD28 [4]: 0.06 | Anti-CD28 Fab (SEQ ID NOs: 202, 203) signal [5]: 0.61

B40: Phage-1255 (peptide)
peptide: SCSAGASYAWPMCI
Anti-CD28 Fab signal in the presence of CD28 [4]: 0.06 | Anti-CD28 Fab (SEQ ID NOs: 202, 203) signal [5]: 0.59

B41: Phage-1256 (peptide)
peptide: DCWWDSPYHWRVCL
Anti-CD28 Fab signal in the presence of CD28 [4]: 0.07 | Anti-CD28 Fab (SEQ ID NOs: 202, 203) signal [5]: 0.57

B42: Phage-1257 (peptide)
peptide: SCAAGAGYGWPQCL
Anti-CD28 Fab signal in the presence of CD28 [4]: 0.13 | Anti-CD28 Fab (SEQ ID NOs: 202, 203) signal [5]: 0.55

B43: Phage-1258 (peptide)
peptide: SCGGGFHYSWPLCF
Anti-CD28 Fab signal in the presence of CD28 [4]: 0.15 | Anti-CD28 Fab (SEQ ID NOs: 202, 203) signal [5]: 0.55

B44: Phage-1259 (peptide)
peptide: GCAAGFHYTLSTCL
Anti-CD28 Fab signal in the presence of CD28 [4]: 0.05 | Anti-CD28 Fab (SEQ ID NOs: 202, 203) signal [5]: 0.42

Reference: patent US20260274955A1 (JANUX THERAPEUTICS, published 2026)
